{"source": "patent US20250041379A1", "about": "“METHODS AND COMPOSITIONS FOR THE TREATMENT OF CANCER” (Vigeo Therapeutics, Inc., priority 2021, published 2025)", "test_system": "subjects with rGBM", "assay": "Phase I/II clinical study (NCT03364400): adverse events in subjects with recurrent GBM", "format": "in vivo, human", "protocol": "VT1021 was evaluated in a recently completed phase I/II open-label, multicenter, dose escalation (Part 1) and expansion (Part 2) clinical study in advanced, refractory, solid tumors including recurrent GBM (rGBM) (NCT03364400). Thirty-two subjects with rGBM were dosed in Part 2, 22 of which were considered evaluable as having completed ≥1 cycle of VT1021 treatment and tumor imaging during cycle 2. […]", "key": {"[1]": {"conditions": "GBM, 32 Subjects, all cycles, maximum grade, regardless of causality"}}, "note": "No end group written: not given here.", "data": [{"substance": "cyclic DWLPK (also: cyclic, mode of cyclisation not given here) [VT1021, 5-amino acid cyclic peptide from prosaposin; Tsp-1-inducing agent]", "values": [{"measurement": "Abdominal Pain (AE), All Grades", "setting": "[1]", "value": 5}, {"measurement": "Abdominal Pain (AE), Grade 1-2", "setting": "[1]", "value": 5}, {"measurement": "Diarrhea (AE), All Grades", "setting": "[1]", "value": 4}, {"measurement": "Diarrhea (AE), Grade 1-2", "setting": "[1]", "value": 4}, {"measurement": "Fall (AE), All Grades", "setting": "[1]", "value": 9}, {"measurement": "Fall (AE), Grade 1-2", "setting": "[1]", "value": 9}, {"measurement": "Infusion reaction (AE), All Grades", "setting": "[1]", "value": 3}, {"measurement": "Infusion reaction (AE), Grade 1-2", "setting": "[1]", "value": 3}, {"measurement": "Nausea (AE), All Grades", "setting": "[1]", "value": 3}, {"measurement": "Nausea (AE), Grade 1-2", "setting": "[1]", "value": 3}, {"measurement": "Vomiting (AE), All Grades", "setting": "[1]", "value": 3}, {"measurement": "Vomiting (AE), Grade 1-2", "setting": "[1]", "value": 2}, {"measurement": "Vomiting (AE), Grade 3-4", "setting": "[1]", "value": 1}, {"measurement": "major adverse events (AEs)", "setting": "phase I/II study, solid tumors including rGBM", "value": "no major adverse events"}]}]}
